Changes are numbered by the printed parent chain. Numbers in names are those of the source. Blank lines part the entries; values can stand above or below the binder they belong to.
Tests used:
Settings in all cases: both partners purified
[1] = target: T1, Parkin (80-465)-Biotin, wild type (UniProt O60260 80-465, biotin (position not given)); assay: AlphaScreen or HTRF; GST-Ubl (1-76) on glutathione acceptor beads and Parkin (80-465)-biotin (WT or H302A) on streptavidin donor beads, 10 nM each; inhibitor proteins in three-fold 10-point dilutions; PBS + 0.1% BSA + 0.1% Triton X-100; RT
T1 sequence (looked up): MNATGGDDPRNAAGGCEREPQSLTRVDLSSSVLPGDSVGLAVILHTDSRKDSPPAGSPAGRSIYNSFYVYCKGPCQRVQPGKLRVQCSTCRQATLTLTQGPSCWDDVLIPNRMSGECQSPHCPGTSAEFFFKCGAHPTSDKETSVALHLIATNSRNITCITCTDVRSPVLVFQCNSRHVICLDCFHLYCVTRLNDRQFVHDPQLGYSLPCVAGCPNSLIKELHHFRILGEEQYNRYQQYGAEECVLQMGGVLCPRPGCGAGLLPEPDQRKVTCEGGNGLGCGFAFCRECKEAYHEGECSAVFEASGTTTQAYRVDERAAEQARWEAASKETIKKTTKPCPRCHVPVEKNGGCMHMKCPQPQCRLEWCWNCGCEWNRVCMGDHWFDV

[2] = target: Ser65-phosphorylated ubiquitin (ubiquitin^Phospho-Ser65) (bovine, UniProt P0CG53 1-76, phosphoserine at 65); assay: ITC; ubiquitin^PhosSer65 in the syringe titrated into 50 μM wild-type or mutant Parkin in the cell; 50 mM HEPES pH 8.0, 150 mM NaCl, 500 μM TCEP; 20°C; single binding site model
[3] = target: Ser65-phosphorylated Dac-ubiquitin (Dac-ubiquitin^PhosSer65) (UniProt P0CG47 1-76, phosphoserine at 65 of ubiquitin); assay: SEC; Superdex 200 Increase 10/300 GL; 50 mM Tris pH 7.5, 150 mM NaCl; 100 μg of each protein, mixtures incubated for 30 min before chromatography

binding result [1]: binds
B1: GST-Ubl (Parkin Ubl domain, residues 1-76) (domain or fragment, UniProt O60260 1-76, looked up)
chain: MIVFVRFNSSHGFPVEVDSDTSIFQLKEVVAKRQGVPADQLRVIFAGKELRNDWTVQNCDLDQQSIVHIVQRPWRK

Kd [2]: ~7 µM
B2: full-length Parkin Lys151Ala (K151A) mutant, untagged (enzyme, UniProt O60260 1-465, looked up)
chain: MIVFVRFNSSHGFPVEVDSDTSIFQLKEVVAKRQGVPADQLRVIFAGKELRNDWTVQNCDLDQQSIVHIVQRPWRKGQEMNATGGDDPRNAAGGCEREPQSLTRVDLSSSVLPGDSVGLAVILHTDSRKDSPPAGSPAGRSIYNSFYVYCAGPCQRVQPGKLRVQCSTCRQATLTLTQGPSCWDDVLIPNRMSGECQSPHCPGTSAEFFFKCGAHPTSDKETSVALHLIATNSRNITCITCTDVRSPVLVFQCNSRHVICLDCFHLYCVTRLNDRQFVHDPQLGYSLPCVAGCPNSLIKELHHFRILGEEQYNRYQQYGAEECVLQMGGVLCPRPGCGAGLLPEPDQRKVTCEGGNGLGCGFAFCRECKEAYHEGECSAVFEASGTTTQAYRVDERAAEQARWEAASKETIKKTTKPCPRCHVPVEKNGGCMHMKCPQPQCRLEWCWNCGCEWNRVCMGDHWFDV

binding result [3]: binds
B3: Parkin 1-465 S65A (enzyme, UniProt O60260 1-465, looked up)
chain: B2 chain with S65A, A151K
